# Biological target: mCerulean-Hsp70 (UniProt P0DMV8)
# Experiment: FRET or BRET
# Sequence of UniProt P0DMV8 (P0DMV8 whole entry): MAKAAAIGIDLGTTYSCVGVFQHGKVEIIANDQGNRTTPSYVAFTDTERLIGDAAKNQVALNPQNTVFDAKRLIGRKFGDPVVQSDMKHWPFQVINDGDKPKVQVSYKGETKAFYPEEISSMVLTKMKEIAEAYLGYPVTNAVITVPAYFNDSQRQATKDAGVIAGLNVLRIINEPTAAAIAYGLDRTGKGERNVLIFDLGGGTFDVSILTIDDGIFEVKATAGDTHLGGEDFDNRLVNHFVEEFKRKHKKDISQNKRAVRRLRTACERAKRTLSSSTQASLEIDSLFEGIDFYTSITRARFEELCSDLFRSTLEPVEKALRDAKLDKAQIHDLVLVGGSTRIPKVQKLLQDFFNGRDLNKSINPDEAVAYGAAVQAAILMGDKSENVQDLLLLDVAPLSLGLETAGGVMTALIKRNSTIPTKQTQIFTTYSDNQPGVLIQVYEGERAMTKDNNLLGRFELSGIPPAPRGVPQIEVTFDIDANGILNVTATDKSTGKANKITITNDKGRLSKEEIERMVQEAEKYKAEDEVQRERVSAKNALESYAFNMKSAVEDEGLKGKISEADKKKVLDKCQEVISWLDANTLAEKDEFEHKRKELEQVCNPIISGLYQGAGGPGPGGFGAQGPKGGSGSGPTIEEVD
substance,measurement,value
mVenus-OLA1 (from UniProt Q9NTK5 1-396) (natural protein),percent FRET efficiency,33%

# From article PMC6739165
